Blank lines part the entries; values can stand above or below the binder they belong to. Ends that are not written are not given here.
Tests used:
Details in all cases: both partners purified
GST-TIR1-ASK1 complex [1] = molecular target: T1, GST-TIR1-ASK1 complex (Arabidopsis thaliana, UniProt Q570C0 1-594; Q39255 1-160); experiment: AlphaScreen or HTRF; competition without auxin: 0.9 nM GST-TIR1 on acceptor beads, 8.3 nM biotinylated IAA7 degron peptide on donor beads, label-free IAA7 degron peptide titrated
T1 construct: F-box protein TIR1, Arabidopsis thaliana; ASK1 (SKP1 homologue), Arabidopsis thaliana; also called GST-tagged TIR1
T1 sequence (looked up) 1: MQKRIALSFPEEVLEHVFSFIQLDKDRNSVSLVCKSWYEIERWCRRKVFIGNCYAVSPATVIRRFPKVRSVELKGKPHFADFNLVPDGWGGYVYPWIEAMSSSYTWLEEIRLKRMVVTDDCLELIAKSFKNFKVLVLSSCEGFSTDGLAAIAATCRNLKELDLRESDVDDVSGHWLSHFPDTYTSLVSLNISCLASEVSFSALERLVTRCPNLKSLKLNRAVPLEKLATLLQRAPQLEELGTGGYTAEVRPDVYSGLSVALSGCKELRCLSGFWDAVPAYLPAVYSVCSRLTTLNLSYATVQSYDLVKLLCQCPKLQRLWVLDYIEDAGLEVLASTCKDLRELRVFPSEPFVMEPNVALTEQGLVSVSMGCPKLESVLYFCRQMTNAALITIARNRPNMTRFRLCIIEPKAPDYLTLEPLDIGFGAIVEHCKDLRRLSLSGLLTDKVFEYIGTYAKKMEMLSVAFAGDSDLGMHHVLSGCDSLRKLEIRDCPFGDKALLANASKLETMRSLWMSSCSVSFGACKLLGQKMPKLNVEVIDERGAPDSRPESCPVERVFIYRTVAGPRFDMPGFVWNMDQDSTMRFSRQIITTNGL
T1 sequence (looked up) 2: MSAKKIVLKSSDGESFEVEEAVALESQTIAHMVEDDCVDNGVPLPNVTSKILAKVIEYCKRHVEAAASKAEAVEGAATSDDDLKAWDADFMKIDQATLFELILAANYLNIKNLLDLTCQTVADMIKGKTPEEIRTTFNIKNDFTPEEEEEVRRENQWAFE

GST-TIR1-ASK1 complex [2] = molecular target: T1, GST-TIR1-ASK1 complex; experiment: BLI; TIR1 and IAA7 degron without auxin; biotinylated IAA7 on streptavidin probe or GST-TIR1 on anti-GST probe (not told which); 30 °C; 25 mM HEPES pH 7.4, 100 mM NaCl, 1 mM TCEP, 0.1% Tween-20, 0.05 mg/mL BSA
[3] = molecular target: T2, DDB1-CRBN complex (CRBN Δ1-40 with full-length DDB1), tag-free (human, UniProt Q96SW2 41-442; Q16531 1-1140); experiment: BLI; biotinylated IKZF1 ZF2-3 or CK1α on streptavidin probe, tag-free DDB1–CRBN as analyte, no IMiD; 30 °C; 25 mM HEPES pH 7.4, 100 mM NaCl, 1 mM TCEP, 0.1% Tween-20, 0.05 mg/mL BSA
T2 construct: human cereblon (CRBN) lacking residues 1-40; human DDB1; also called CRBN–DDB1 complex; CRBN in complex with full-length DDB1; source: Hi5 insect cells, co-expressed, purified (Ni-NTA, TEV, anion exchange, SEC); not shown: SUMO-tag, N-terminal, cleaved; His-Msb-tag, N-terminal, cleaved

His-DDB1–CRBN complex = molecular target: T3, His-DDB1–CRBN complex (human, UniProt Q96SW2 41-442; Q16531 1-1140); experiment: AlphaScreen or HTRF; competition without pomalidomide: 0.9 nM His-DDB1–CRBN on acceptor beads, 8.3 nM biotinylated IKZF1 ZF2-3 on donor beads, label-free IKZF1 ZF2-3 titrated
T3 construct: human cereblon (CRBN) lacking residues 1-40; human DDB1; Held on AlphaScreen acceptor beads by the His-tag; source: Hi5 insect cells, co-expressed, purified (Ni-NTA); not shown: His-Msb-tag, N-terminal, kept

B2: Biotin-labeled Avi-CK1α (enzyme, human, UniProt P48729 1-337, looked up)
chain: MASSSGSKAEFIVGGKYKLVRKIGSGSFGDIYLAINITNGEEVAVKLESQKARHPQLLYESKLYKILQGGVGIPHIRWYGQEKDYNVLVMDLLGPSLEDLFNFCSRRFTMKTVLMLADQMISRIEYVHTKNFIHRDIKPDNFLMGIGRHCNKLFLIDFGLAKKYRDNRTRQHIPYREDKNLTGTARYASINAHLGIEQSRRDDMESLGYVLMYFNRTSLPWQGLKAATKKQKYEKISEKKMSTPVEVLCKGFPAEFAMYLNYCRGLRFEEAPDYMYLRQLFRILFRTLNHQYDYTFDWTMLKQKAAQQAASSSGQGQQAQTPTGKQTDKTKSNMKGF
modifications: biotin on the Avi-tag (BirA-catalyzed)
notes: human casein kinase 1 alpha (CK1α); also called CK1a; source: Hi5 insect cells, purified (Ni-NTA, TEV, cation exchange, SEC, BirA biotinylation, SEC); not shown: His-Set3, N-terminal, cleaved; Avi-tag, N-terminal, kept
Kd [3]: 2300 nM

B3: Biotin-labeled Avi-IKZF1 ZF2-3 (141-196) (domain or fragment, human, UniProt Q13422 141-196, looked up)
chain: {Avi‑tag(biotin)}-GERPFQCNQCGASFTQKGNLLRHIKLHSGEKPFKCHLCNYACRRRDALTGHLRTHS
modifications: cysteine pairing not given here
notes: human IKZF1 (Ikaros), zinc fingers 2-3, residues 141-196; also called biotinylated IKZF1^ZF2-3; not shown: GST, N-terminal, cleaved; Avi-tag, N-terminal, kept
Kd [3]: 223 nM

More lines, now with the values ahead:

IC50 (GST-TIR1-ASK1 complex [1]): 18000 to 20000 nM
Kd (GST-TIR1-ASK1 complex [2]): 18500 nM
B1: IAA7 degron peptide, non-labeled (peptide)
chain: QVVGWPPVRNYRK
modifications: synthetic peptide, unlabelled; limits not given, taken from the IAA7 degron peptide of the TIR1-ASK1 crystal structures (13-mer, PDB 2P1Q)

IC50 (His-DDB1–CRBN complex): 200 to 300 nM
B4: Label-free IKZF1 ZF2-3 (141-196) (domain or fragment, human, UniProt Q13422 141-196, looked up)
chain: GERPFQCNQCGASFTQKGNLLRHIKLHSGEKPFKCHLCNYACRRRDALTGHLRTHS
notes: human IKZF1 (Ikaros), zinc fingers 2-3, residues 141-196; also called Avi-IKZF1^ZF2-3; not shown: GST, N-terminal, cleaved
